Experimental data as given in US20240307488A1, “ANNEXIN TO INHIBIT BACTERIA” (priority 2023, published 2024).

Assays:
E. coli strain BL21(DE3) = assay: dark field light microscopy of antibiotic-driven bacterial filament formation and filament length measurement; type: cell-based
From the text: Use of dark field light microscopy to monitor antibiotic-driven bacterial filament formation.
In bright field light microscopy, the filaments formed by bacteria in the presence of beta-lactam antibiotics are difficult to distinguish from “floaters” in the eyes of the microscopist. […] The light micrographs provided herein were all obtained by darkfield light microscopy. […] Therefore, transmission electron microscopy was also used in some cases for visualization of cell ultrastructure.
Darkfield light microscopy of bacterial cultures was performed with a Nikon Labophot microscope (Nikon Instruments, Melville, New York) with a dark field condenser (dry) and an e plan40×/0.65 Nikon objective.
of the inducer IPTG (Isopropyl β-d-1-thiogalactopyranoside). However, protein expression from this plasmid can have significant baseline expression without the inducer. […] Accordingly, all of the imaging and experiments described in this report were performed without adding the inducer, which avoided these problems.
Five ml precultures in LB medium with 200 μg/ml ampicillin were seeded with colonies from LB-ampicillin agar plates and incubated on a rotator overnight at 34 degrees C. […] Slides were rested for 2 to 5 minutes to allow the cells to settle before observation. Nonetheless, the cells were not tightly adherent to the slides and occasionally some cells moved slightly during imaging resulting in a double image. Cultures were checked and micrographs taken at 5 to 20 min intervals for up to 4 hours. Occasionally during this period, the culture tubes were briefly inserted into a Genesys 20 spectrophotometer (Thermospectronic, Rochester, NY) and the absorbance at 600 nm was recorded to measure culture density. The culture tubes have a circular cross section with an inside diameter of 1.3 cm, so the absorbances recorded were approximately 30% higher than would have been measured in a square cuvette with a one cm pathlength.
For preparation of the micrographs in FIGS. 1 through 3 comparing the morphology of the different transformed strains, each test culture (5 ml) was inoculated at the same time with 50 ul of the saturated overnight preculture. For display in the Figures, photographs taken after approximately the same period of growth of each of the parallel cultures were obtained when 20 μl samples provided a microscope image containing a broad sampling of the cell morphologies seen without overcrowding.
The lengths of the bacterial filaments were measured using the Image J program (NIH) with the dark field light micrographs. […] The longest dimension of each cell or filament was taken to represent the “length” for the analysis. Forty to 90 filaments were measured from each of the sub-images in FIGS. 1 and 2.

[1] = test system: bovine chromaffin granule (secretory vesicle) membrane; settings: from Nelson and Creutz [17], Table 4; cited from earlier work
E. coli BL21(DE3) cells = assay: electron microscopy of cells expressing wild type or mutant annexins A4; type: cell-based; settings: 200 μg/ml ampicillin and 4 μg/ml piperacillin; FIG. 4
From the text: E. coli samples selected for ultrastructural analysis were processed for electron microscopy using technical support and instrumentation in the Advanced Microscopy Facility at the University of Virginia School of Medicine. The following reagents for electron microscopy were obtained from Electron Microscopy Sciences (Hatfield, PA): sodium cacodylate, propylene oxide, EPON, uranyl acetate, and lead citrate.
One ml samples of cell cultures were pelleted in a microcentrifuge and resuspended in 2.5% glutaraldehyde in 10 mM phosphate buffer (pH7.4) and held overnight at 4 degrees C. The cells were then washed in 0.1 M sodium cacodylate, 2 times, 10 minutes per wash. Then the samples were completely immersed in 1% osmium tetroxide (OsO4) in 0.1 M sodium cacodylate and incubated at room temperature for 1 hour. Following this incubation, the samples were rinsed in 0.1 M sodium cacodylate, 2 times, 10 minutes per wash. Next samples were dehydrated sequentially in 50%, 70%, 95%, 100% ethanol for at least 10 minutes each. Samples were then rinsed in 1:1 ethanol:propylene oxide and incubated for 10 min in the same mixture, then for 10 min in 100% propylene oxide. Following removal of the final propylene oxide, samples were incubated in a 1:1 propylene oxide:EPON mixture overnight, followed with 1:2 propylene oxide:EPON and 1:4 propylene oxide:EPON, 4 hours each. […]

[2] = E. coli expressing construct, grown in ampicillin (200 μg/ml), FIG. 1
[3] = ampicillin (200 μg/ml) plus piperacillin (4 μg/ml), FIG. 2

CC1=C(C(=O)O)N2C(=O)[C@@H](NC(=O)[C@H](N)c3ccccc3)[C@H]2SC1 [cephalexin, reference compound]
propensity to promote the formation of long, stable filaments (E. coli strain BL21(DE3); compared with ampicillin and piperacillin): greatest propensity to promote the formation of long, stable filaments

B1: bovine annexin A4 (protein, UniProt P13214 2-319, looked up)
Annexin A4: AAKGGTVKAASGFNAAEDAQTLRKAMKGLGTDEDAIINVLAYRSTAQRQEIRTAYKTTIGRDLMDDLKSELSGNFEQVILGMMTPTVLYDVQELRKAMKGAGTDEGCLIEILASRTPEEIRRINQTYQLQYGRSLEDDIRSDTSFMFQRVLVSLSAGGRDESNYLDDALMRQDAQDLYEAGEKKWGTDEVKFLTVLCSRNRNHLLHVFDEYKRIAQKDIEQSIKSETSGSFEDALLAIVKCMRNKSAYFAERLYKSMKGLGTDDDTLIRVMVSRAEIDMLDIRANFKRLYGKSLYSFIKGDTSGDYRKVLLILCGGDD
concentration of calcium leading to half-maximal binding to a biological membrane [1]: 5.0×10^−6 M
AVG μm: average length of the measured filaments (E. coli strain BL21(DE3); [2]): 5.279 μm
MAX μm: length of the longest filament in the micrograph (E. coli strain BL21(DE3); [2]): 15.03 μm
optical density (A600) of the cultures with or without the annexin (E. coli strain BL21(DE3); ampicillin (200 μg/ml)): similar
promotion of cytokinesis (grouping of constructs) (E. coli strain BL21(DE3); ampicillin (200 μg/ml)): promoted cytokinesis
filament formation (E. coli strain BL21(DE3); ampicillin (200 μg/ml) plus cephalexin (25 μg/ml)): long filamentous cells were formed
promotion of cytokinesis (grouping of constructs) (E. coli strain BL21(DE3); ampicillin (200 μg/ml) plus piperacillin (4 μg/ml)): promoted cytokinesis
AVG μm: average length of the measured filaments (E. coli strain BL21(DE3); [3]): 5.052 μm
MAX μm: length of the longest filament in the micrograph (E. coli strain BL21(DE3); [3]): 9.472 μm
stability of the filaments after tenfold dilution of cephalexin (E. coli strain BL21(DE3); cephalexin reduced from 25 to 2.5 μg/ml after 3 hours 20 minutes, observed for two hours): completely stable
relative abundance of short cells and filamentous forms in electron micrographs (E. coli BL21(DE3) cells): number of short cells exceeds the number of extended filamentous forms
